Source: patent publication US20040107456A1 (ACADEMIA SINICA, published 2004)

Columns and labels:
[1] = molecular target: T1, GBD-OsMYBS1 fusion protein (yeast; rice, UniProt P04386 1-147); test: two-hybrid in barley aleurone cells, luciferase reporter
T1 construct: Two-hybrid bait expressed from the Ubi promoter in barley aleurone cells
Procedure: (§1) In c-Myb, R2 and R3 bind to specific DNA sequences cooperatively. To test the possibility that OsMYBS binds DNA as dimers, homologous and heterologous interactions among OsMYBS proteins were analyzed using a two-hybrid system in barley aleurone cells. The full-length OsMYBS sequences were individually fused at the C-terminus of GAD or GBD. The GAD-OsMYBS and GBD-OsMYBS chimeric genes were fused downstream of the Ubi promoter and used as effector constructs. A DNA fragment containing five tandem repeats of UAS (5×UAS) was fused upstream of the CaMV35S minimal promoter-Luc chimeric gene and used as a reporter construct. The barley half seeds were particle-bombarded simultaneously with two effector plasmids, each containing GAD-OsMYBS and GBD-OsMYBS fusion genes, and the reporter plasmid. The bombarded half seeds were incubated in buffer without glucose for 24 h, and luciferase activity was determined. […] Except that the background level of reporter gene expression in the presence of GBD-OsMYBS1 alone is too high to detect the interactions between GBD-OsMYBS1 and GAD-OsMYBS proteins, similar results were obtained with the yeast two-hybrid experiments.

[2] = molecular target: T2, GBD-OsMYBS2 fusion protein (yeast; rice); test: two-hybrid in barley aleurone cells, luciferase reporter; similar results in yeast two-hybrid
T2 construct: Two-hybrid bait
Procedure: as §1

[3] = molecular target: T3, GBD-OsMYBS3 fusion protein (yeast; rice); test: as above
T3 construct: Two-hybrid bait
Procedure: as §1

B1: GAD-OsMYBS3 fusion protein (other)
chain: MTRRCSHCSHNGHNSRTCPNRGVKIFGVRLTDGSIRKSASMGNLSLLSSAAGSTSGGASPADGPDAAPTAADGYASDDFVQGFSSATRDRKKGVPWTEEEHRRFLLGLQKLGKGDWRGISRNFVVSRTPTQVASHAQKYFIRQSNMTRRKRRSSLFDMVPDESMDLPPLPGGQEPETQVLNQPALPPPKEEEEVDSMESDTSAVAESSSASAIMPDNLQSTYPVIVPAYFSPFLQFSVPFWQNQKDEDGPVQETHEIVKPVPVHSKSPINVDELVGMSKLSIGESNQETESTSLSLNLVGGQNRQSAFHANPPTRAQA
notes: Two-hybrid prey expressed from the Ubi promoter in barley aleurone cells; not shown: limits not
B1: no binding [1]; no binding [2]; no binding [3].

B2: GAD-OsMYBS1 fusion protein (other)
chain: MTSQAATTTTTAAAAAAWTREDDKAFENALAACAAPPPADGGAPDDDWFAALAASVPGARSAEEVRRHYEALVEDVAAIDAGRVPLPRYAGEESAAPPDGAGAAAAASKDGGHRRDERKGGGGGYDGGKSCSKAEQERRKGIPWTEEEHRLFLLGLDKFGKGDWRSISRNFVISRTPTQVASHAQKYFIRLNSMNRDRRRSSIHDITSVTAGDQVAAQQGAPITGHQATGNPAAAALGPPGMKHHHHHHPGGAPPPMPMYSAAPMGHPVAGHMVPAAVGTPVVFPPGHAPYVVPVGYPAPPAKMHQ
notes: as for B1
B2: no binding [2]; no binding [3].
